# Assay results reported in patent US8092989B2, “Targeting the histone code as a bacterial strategy for selectively modulating gene expression” (Institut Pasteur, priority 2005, dated 2012).
# How the values were obtained:
# [1] = tested on: histone H3 phosphorylation at Ser 10 (H3 pS10); test: H3 pS10 immunofluorescence in HeLa cells infected with the ospF strain, kinase inhibitors; format: cell-based; conditions: 60 min pretreatment with both U0126 (10 μM) and SB203180 (2.5 μM), infection 30 min
# Procedure: Indirect immunofluorescence detection was performed with anti-phospho-histone H3 S10 polyclonal antibody. […] Cells were left untreated (ns) or infected with the ospF strain for 30 min. IF was performed with anti-H3 methyl K9-pS10 antibody.
# Indirect immunofluorescence. Cells were fixed with 3.7% paraformaldehyde in PBS for 10 min, permeabilized with 0.5% Triton-X in PBS. The following antibodies were used: anti-phospho-p42/p44 antibody (Sigma); anti-p42/p44, anti-phospho-histone H3 S10 (Upstate Cell Signaling), anti-acetyl histone H4 (Lys14) (Upstate Biotechnology) antibodies.
# [2] = tested on: ^33P-labeled Erk2; test: 33P-labeled Erk2 phosphatase assay, steady state kinetics; conditions: 100 nM phosphatase, pH 8, 30° C., 10 minutes, Michaelis-Menten fit
# Procedure: Preparation of the ^33P-labeled Erk2 kinase substrate. The in vitro phosphorylation of the GST-Erk2 fusion protein was carried out by incubating 500 μg purified GST-Erk2 coupled to beads with 20 μg His6-tagged activated MEK1 (Upstate Cell Signaling) in a kinase buffer (50 mM Tris pH 7.5, 2 mM DTT, 10 mM MgCl2) with 100 μM ATP (γ-3P ATP, 3000 Ci/mmol) for 2 hours at 30° C. The beads were washed 5 times with 30 ml of 1× PBS and eluted in 50 mM Tris pH 8, 10 mM glutathione, and 10% glycerol. The fractions were dialyzed overnight to remove residual ATP in 50 mM Tris pH8, 50 mM NaCl, and 10% glycerol.
# In vitro phosphatase assay. […] Therefore, the reaction was initiated by the addition of the phosphatase, incubated for 10 minutes at 30° C. and terminated by adding 200 μl cold 20% trichloroacetic acid. The samples were centrifuged at 10,000×g and 200 μl of the supernatant was mixed with 5 ml of scintillation fluid for taking radioactivity measurements. The product generated (inorganic phosphate) was kept below 5% of the initial substrate concentrations. Reactions containing the Erk2 substrate and buffer without phosphatase was used as a blank for each data point. The data were fitted to the Michaelis-Menten equation using the software Kaleidagraph.
# The kinetic parameters were determined by following the production of radioactive inorganic phosphate.
# [3] = target: T1, phospho p38-GST (Homo sapiens, UniProt Q16539); test: In vitro phosphatase assay on phospho p38 (Western blot); format: biochemical; conditions: purified phospho-MAP kinase, 50 nM
# T1 construct: GST
# [4] = tested on: histone H3 purified from calf thymus; test: In vitro dephosphorylation of histone H3 / H3 tail peptides; format: biochemical; conditions: 2 hours at 30° C., even when enzyme concentration increased 100 fold
# Procedure: (§1) (A) HeLa cells were left untreated (ns) or infected with the WT or the ospF strain at the indicated time. Indirect immunofluorescence detection was performed with anti-phospho-histone H3 S10 polyclonal antibody. (B) HeLa cells were synchronized by a double thymidine block (2 mM thymidine) and left untreated (ns) or infected with the WT or the ospF strain at the indicated time. Immunoblots were probed with anti-H3 phospho S10 (H3 pS10), anti-H3 methyl K9-phospho S10(H3 metK9-pS10), anti-H3 phospho S10. acetyl-K14 (H3 p-S10/Ac-K14), anti Histone H3 polyclonal anti-pp38 and pErk antibodies. (C) HeLa cells were transfected with pRK5myc-OspF vector and treated with 200 nM okadaic acid for 3 hours. IF was performed with anti-myc (red) and anti-H3 methyl K9-pS10 (green) antibodies. […] (D) One micogram of calf-thymus histone (Sigma) was incubated with 300 ng of His-OspF or with 120 U of λ phosphatase for 2 hours at 30° C. Western blot was performed with an anti-metK9-pS10 antibody. (E) One micogram of peptide metK9-S10 was spotted onto a nitrocellulose membrane that was incubated with buffers, 5 μg/ml of OspF, or 2000 U/ml of lambda phosphatase for 2 hours at 30° C. Western blot was performed with an anti-metK9-pS10 antibody. (F) HeLa cells were pretreated for 60 min with either the MEK1 inhibitor U0126 (10 μM) or the p38 inhibitor SB203180 (2.5 μM) or both. […]
# [5] = tested on: pErk2-GST; test: In vitro phosphatase assay on phospho-Erk2 (Western blot); conditions: purified protein, Western blot with anti phospho-Erk
# [6] = tested on: histone H3 phosphorylation at Ser 10 (H3 pS10); test: H3 pS10 induced by okadaic acid in HeLa cells overexpressing OspF; format: cell-based; conditions: HeLa transfected with pRK5myc-OspF, 200 nM okadaic acid 3 hours
# Procedure: as §1
# [7] = target: T2, phospho JNK1 Histidine (Homo sapiens, UniProt P45983); test: In vitro phosphatase assay on phospho JNK1 (Western blot); format: biochemical; conditions: purified phospho-MAP kinase, 50 nM
# T2 construct: His
# [8] = tested on: IL-12; test: Murine model of pulmonary infection, lung cytokines by ELISA; format: in vivo, mice; conditions: lungs infected with M90T or ospF strain, 24 hours post-infection (FIG. 10)
# Procedure: The cytokine/chemokine network induced upon infection with Shigella flexneri was analyzed by comparing the profiles obtained upon infection with the invasive strain carrying the virulence plasmid (INV+) and the non-invasive, plasmidless strain (INV−). The murine model of pulmonary infection was used since it was the only valid model to analyze the specific host immune response upon Shigella infection. Following infection with INV−, a Th1 type-network (IL-12, IL-18, IFN-γ, CCL9, CCL10, CCL13, and CCL4) was induced. In contrast, a Th2/Tr1 profile (IL-10, CCL1, CCL24 and CCL2) was induced upon infection with INV+. The difference observed was not due to the bacterial dose used for the infection, but was dependent on the presence or absence of the virulence plasmid.
# Some of these bacterial effectors are injected within the host cells by a type III secretion apparatus. Use of different bacterial mutants, has highlighted that the bacterial effectors involved in the immunomodulation were effectors secreted by the type III-secretion apparatus. Finally, OspF, a type III-secreted bacterial effector was responsible fore the control of IL-12 production (FIG. 10).
# [9] = tested on: NF-κB reporter construct; test: TNF-α-induced NF-κB reporter construct in Caco 2 cells; format: cell-based, human; conditions: overexpression in Caco 2 cells
# Source text: In addition to the classical MAPK-dependent target genes, OspF also repressed expression of some NF-κB-dependent chemokine genes such as IL-8. The IL-8 promoter contains an NF-κB binding site essential for expression of this gene (Hoffmann et al., 2002). Therefore, the inventors looked whether OspF interferes with the NF-κB signaling pathway. […] (FIG. 5E).
# [10] = tested on: p38 MAP kinases; test: p38 phosphorylation in transfected HeLa cells stimulated by TNF; format: cell-based; conditions: TNF stimulation
# [11] = tested on: endogenous Erk; test: Erk phosphorylation in transfected HeLa cells stimulated by PMA; conditions: HeLa cells transfected with expression plasmid, PMA stimulation
# [12] = tested on: p46 and p54 JNK kinases; test: JNK phosphorylation in transfected HeLa cells stimulated by TNF; format: cell-based; conditions: TNF stimulation
# T2 sequence (P45983 whole entry): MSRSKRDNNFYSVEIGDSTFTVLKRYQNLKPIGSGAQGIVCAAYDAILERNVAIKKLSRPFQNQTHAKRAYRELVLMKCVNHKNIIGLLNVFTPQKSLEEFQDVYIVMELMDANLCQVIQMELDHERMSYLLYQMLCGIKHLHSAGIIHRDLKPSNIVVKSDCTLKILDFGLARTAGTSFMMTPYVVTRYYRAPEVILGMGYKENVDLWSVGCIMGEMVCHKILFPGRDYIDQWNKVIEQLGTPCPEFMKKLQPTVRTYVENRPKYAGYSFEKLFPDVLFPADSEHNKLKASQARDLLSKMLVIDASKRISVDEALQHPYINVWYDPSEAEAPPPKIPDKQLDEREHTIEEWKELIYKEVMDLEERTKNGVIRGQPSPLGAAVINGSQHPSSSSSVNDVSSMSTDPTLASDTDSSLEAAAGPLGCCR
# T1 sequence (Q16539 whole entry): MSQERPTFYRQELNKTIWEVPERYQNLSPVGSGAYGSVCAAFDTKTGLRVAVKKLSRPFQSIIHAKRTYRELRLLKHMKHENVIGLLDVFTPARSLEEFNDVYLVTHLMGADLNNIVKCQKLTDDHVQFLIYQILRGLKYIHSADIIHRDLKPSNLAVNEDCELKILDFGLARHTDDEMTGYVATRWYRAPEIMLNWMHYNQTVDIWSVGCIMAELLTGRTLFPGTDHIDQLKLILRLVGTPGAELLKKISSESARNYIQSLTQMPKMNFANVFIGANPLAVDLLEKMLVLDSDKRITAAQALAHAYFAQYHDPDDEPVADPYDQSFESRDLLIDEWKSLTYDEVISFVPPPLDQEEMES
molecule,measurement,setting,value
C[S+]([O-])c1ccc(-c2nc(-c3ccc(F)cc3)c(-c3ccncc3)[nH]2)cc1 (stereo not shown) [SB 203180],H3 pS10 signal induced by the ospF strain,[1],fully inhibited
N#CC(=C(/N)Sc1ccccc1N)/C(C#N)=C(\N)Sc1ccccc1N [U0126],H3 pS10 signal induced by the ospF strain,[1],fully inhibited
"MKP1: known mammalian dual specific phosphatase used as a control (protein, UniProt P28562 1-367, looked up) Dual specificity protein …: MVMEVGTLDAGGLRALLGERAAQCLLLDCRSFFAFNAGHIAGSVNVRFSTIVRRRAKGAMGLEHIVPNAELRGRLLAGAYHAVVLLDERSAALDGAKRDGTLALAAGALCREARAAQVFFLKGGYEAFSASCPELCSKQSTPMGLSLPLSTSVPDSAESGCSSCSTPLYDQGGPVEILPFLYLGSAYHASRKDMLDALGITALINVSANCPNHFEGHYQYKSIPVEDNHKADISSWFNEAIDFIDSIKNAGGRVFVHCQAGISRSATICLAYLMRTNRVKLDEAFEFVKQRRSIISPNFSFMGQLLQFESQVLAPHCSAEAGSPAMAVLDRGTSTTTVFNFPVSIPVHSTNSALSYLQSPITTSPSC",kcat of Erk2 dephosphorylation,[2],0.0006 s⁻¹
"OspF: protein encoded by the Shigella ospF gene, a dual specific phosphatase; NCBI Accession CAC05773 (protein) MPIKKPCLKLNLDSLNVVRSEIPQMLSANERLKNNFNILYNQIRQYPAYYFKVASNVPTYSDICQSFSVMYQGFQIVNHSGDVFIHACRENPQSKGDFVGDKFHISIAREQVPLAFQILSGLLFSEDSPIDKWKITDMNRVSQQSRVGIGAQFTLYVKSDQECSQYSALLLHKIRQFIMCLESNLLRSKIAPGEYPASDVRPEDWKYVSYRNELRSDRDGSERQEQMLREEPFYRLMIE",dephosphorylation of phospho p38,[3],directly dephosphorylated
same,direct dephosphorylation of histone H3 (metK9-pS10 / pS10),[4],did not directly dephosphorylate
same,dephosphorylation of phospho-Erk2,[5],directly dephosphorylated
same,induction of H3 pS10 by okadaic acid,[6],efficiently prevented induction
same,Vmax of Erk2 dephosphorylation,[2],9.89 pM/s
same,kcat of Erk2 dephosphorylation,[2],0.0001 s⁻¹
same,Km,[2]; read-out: Km of Erk2 dephosphorylation,204 nM
same,dephosphorylation of phospho JNK1,[7],failed to dephosphorylate
same,IL-12 production in vivo,[8],down regulated
same,TNF-α-induced activation of NF-κB reporter,[9],did not impair
"myc-labelled OspF: OspF with a myc label expressed from plasmid pRK5myc-OspF (protein, left off: small tags and cut ends) MPIKKPCLKLNLDSLNVVRSEIPQMLSANERLKNNFNILYNQIRQYPAYYFKVASNVPTYSDICQSFSVMYQGFQIVNHSGDVFIHACRENPQSKGDFVGDKFHISIAREQVPLAFQILSGLLFSEDSPIDKWKITDMNRVSQQSRVGIGAQFTLYVKSDQECSQYSALLLHKIRQFIMCLESNLLRSKIAPGEYPASDVRPEDWKYVSYRNELRSDRDGSERQEQMLREEPFYRLMIE",effect on p38 phosphorylation in cells,[10],prevented phosphorylation
same,effect on Erk phosphorylation / ability to dephosphorylate Erk in cells,[11],prevented phosphorylation
same,effect on JNK phosphorylation in cells,[12],not
